Test [1] concerns the target 14-3-3ɣ. Put plainly: SPR, 14-3-3ɣ binding to immobilised PEAK proteins. Also noted: species or system human. To be noted: 14-3-3ɣ analyte 0.46–1000 nM, multi-cycle, over immobilised biotinylated PEAK protein; Biacore 8K+, 20 °C; KD only an estimate (bivalent analyte model); N = 3. On the procedure:
PEAK proteins and adapters proteins (full length or individual domains) were biotinylated using EZ-Link™ NHS-PEG4-Biotin (Thermo Fisher) at a 1:1 molar ratio (100 µM) for 1 h at room temperature, then excess biotin was removed by buffer exchange using a Zeba™ Spin Desalting Column (Thermo Fisher) into HBS-T buffer (20 mM HEPES pH 7.4, 150 mM NaCl, 1 mM TCEP).
SPR binding studies of PEAK proteins to full length CrkII/Grb2 and sub-domains were performed using a Biacore 8K+ Instrument (Cytiva) and analyzed using Biacore Insight Evaluation Software (v. 3.0.12.15655). […] Biotinylated PEAK proteins (with or without Src phosphorylation; 500 nM in HBS-TP) were immobilized using a biotin CAPture kit (Cytiva) in HBS-TP running buffer at 20 °C. Binding studies and steady-state data analysis were performed as described for CrkII^NSH3 with the inclusion of an additional surface regeneration step (60 s injection of 1 M NaCl) between cycles. For Grb2^FL, Grb2^SH2, CrkII^SH2, CrkII^FL monomer and CrkII^FL dimer, to reduce nonspecific interactions the HBS-TP running buffer was supplemented with additional NaCl to a final concentration of 500 mM.
Binding studies for 14-3-3ɣ were undertaken in the same way in multi cycle mode (8 point, 3-fold serial dilution series, 0.46–1000 nM, 60 s contact time, 300 s dissociation).

Test [2] addresses T1, CrkII^NSH3 (Homo sapiens, UniProt P46108).
T1 construct: CrkII^NSH3; UniProt P46108-1, residues 134–191; 8-His tag with TEV protease cleavage site (N); made in house; host or cells: E. coli C41 (DE3)
Put plainly: SPR, CrkII NSH3 binding to immobilised PEAK proteins. The settings on record: read-out: CrkII NSH3 SPR KD; interactor as analyte over biotinylated PEAK protein captured with biotin CAPture kit; Biacore 8K+, HBS-TP, 20 °C; steady-state fit; mean ± SD (N = 2); read-out: CrkII-SH2 SPR KD. The procedure:
(§1) SPR binding studies of PEAK PRM peptides to CrkII^NSH3 were performed using a Biacore S200 Instrument (Cytiva). Purified CrkII^NSH3 was diluted to 5 µg ml^−1 in 10 mM sodium acetate pH 4.0 and amine coupled at 25 °C to a Series S CM5 sensor chip, in HBS-N running buffer (20 mM HEPES pH 7.4, 150 mM NaCl) to a final immobilization level of 1100–1400 response units (RU), followed by surface deactivation using 1 M ethanolamine. A blank activation/deactivation was used for the reference surface. Peptide binding studies were performed at 20 °C in HBS-TP running buffer (20 mM HEPES pH 7.4, 150 mM NaCl, 1 mM TCEP, 0.005% (v/v) Tween-P20). […] Peptide stocks were further diluted to in running buffer to 10 or 20 µM and prepared as a 11-point concentration series (2-fold serial dilution, […] for PEAK PRM peptides, or 20 µM–20 nM for PEAK tandem motif peptides). Samples were injected in a multi-cycle run (flow rate 30 µl min^−1, contact time of 60 s, dissociation 120 s) without regeneration. Sensorgrams were double referenced, and steady-state binding data fitted using a 1:1 binding model using Biacore S200 Evaluation Software (Cytiva, v. 1.1).
(§2) SPR binding studies of PEAK proteins to full length CrkII/Grb2 and sub-domains were performed using a Biacore 8K+ Instrument (Cytiva) and analyzed using Biacore Insight Evaluation Software (v. 3.0.12.15655). […] Binding studies and steady-state data analysis were performed as described for CrkII^NSH3 with the inclusion of an additional surface regeneration step (60 s injection of 1 M NaCl) between cycles.
For orientation: Surface plasmon resonance follows binding to a sensor surface in real time, without labels.

For test [3], the target named is T2, CrkII^FL monomer (Homo sapiens, UniProt P46108).
T2 construct: full length CrkII (CrkII^FL; UniProt P46108-1, residues 1–330); 8-His tag with TEV protease cleavage site (N); made in house; host or cells: E. coli C41 (DE3)
T2 sequence (P46108 whole entry, the tested form may be a part): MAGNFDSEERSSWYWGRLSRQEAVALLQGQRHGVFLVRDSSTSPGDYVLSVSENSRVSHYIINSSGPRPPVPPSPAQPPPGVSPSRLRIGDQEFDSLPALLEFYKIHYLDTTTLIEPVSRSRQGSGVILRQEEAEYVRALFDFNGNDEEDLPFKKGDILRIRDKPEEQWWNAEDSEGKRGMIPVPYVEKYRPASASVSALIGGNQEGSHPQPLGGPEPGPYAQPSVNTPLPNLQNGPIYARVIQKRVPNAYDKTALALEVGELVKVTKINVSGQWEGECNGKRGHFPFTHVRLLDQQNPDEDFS
Put plainly: SPR, CrkII FL monomer binding to immobilised PEAK proteins. To be noted: interactor as analyte over biotinylated PEAK protein (biotin CAPture); Biacore 8K+, HBS-TP with 500 mM NaCl, 20 °C; steady-state fit; mean ± SD (N = 2). The procedure:
as §1
(§3) SPR binding studies of PEAK proteins to full length CrkII/Grb2 and sub-domains were performed using a Biacore 8K+ Instrument (Cytiva) and analyzed using Biacore Insight Evaluation Software (v. 3.0.12.15655). […]

Test [4] addresses T3, CrkII^SH2 (Homo sapiens, UniProt P46108).
T3 construct: CrkII^SH2; UniProt P46108-1, residues 6–120; 8-His tag with TEV protease cleavage site (N); made in house; host or cells: E. coli C41 (DE3)
Put plainly: SPR, CrkII SH2 binding to immobilised PEAK proteins. The settings on record: interactor as analyte over biotinylated PEAK protein (biotin CAPture); Biacore 8K+, HBS-TP with 500 mM NaCl, 20 °C; steady-state fit; mean ± S.E.M. (N = 3). The procedure: as §1, §2

Test [5] concerns the target T4, CrkII^FL dimer (Homo sapiens, UniProt P46108).
T4 construct: full length CrkII (CrkII^FL; UniProt P46108-1, residues 1–330); 8-His tag with TEV protease cleavage site (N); made in house; host or cells: E. coli C41 (DE3)
Put plainly: SPR, CrkII FL dimer binding to immobilised PEAK proteins. The settings on record: interactor as analyte over biotinylated PEAK protein (biotin CAPture); Biacore 8K+, HBS-TP with 500 mM NaCl, 20 °C; steady-state fit; mean ± SD (N = 2). The procedure: as §1, §3

T4 sequence (P46108 whole entry, the tested form may be a part): as above
T1 sequence (P46108 134-191): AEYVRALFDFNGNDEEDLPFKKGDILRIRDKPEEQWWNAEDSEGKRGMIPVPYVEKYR
T3 sequence (P46108 6-120): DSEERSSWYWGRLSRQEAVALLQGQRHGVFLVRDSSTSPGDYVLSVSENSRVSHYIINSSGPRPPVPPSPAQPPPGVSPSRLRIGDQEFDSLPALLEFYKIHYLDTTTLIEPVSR

As a reminder, the Kd is the free concentration of one partner at which half of the binding sites on the other are occupied at equilibrium, for simple one-to-one binding. Consider “PEAK3-FL E.coli (+ Src phosphorylation): E. coli PEAK3 (1–473) phosphorylated with recombinant Src kinase”, for which, in test [1], the “SPR KD, 14-3-3ɣ” value is reported as “No binding”. In addition, the Kd in test [2] came out at 13100 nM; in test [3], 2600 nM; in test [5] it was 2110 nM. Moreover, the “SPR KD, CrkII-SH2” value in test [4] was “No binding”.

The values above are taken from PMC10279719 (Nature Communications, 2023).
